These results are taken from article PMC9094657, “A bioactive phlebovirus-like envelope protein in a hookworm endogenous virus” (Science Advances, 2022).

The target in data set [1] is Atlas GC ectodomain fusion loop mutant F136A/F137A (Ancylostoma ceylanicum).
In data set [2] the target is Atlas GC ectodomain GPL binding pocket mutant R86A (Ancylostoma ceylanicum).
Data set [3] deals with the molecule itself. The data set is described as follows: SEC-MALS; Superdex 200 (10/300), 293 K, 20 mM tris pH 7.8, 0.15 M NaCl, 5% glycerol, 0.5 mM TCEP; 100 ul at 1.6 to 2.5 mg/ml; self-association (trimer). Background: In gel filtration, larger molecules generally elute earlier.

For orientation: stoichiometry N means the number of molecules, sites or subunits per partner or assembly.

In data set [1], “Atlas GC ectodomain fusion loop mutant F136A/F137A (domain or fragment)” had a stoichiometry N of 3.
Turning to “Atlas GC ectodomain GPL binding pocket mutant R86A (domain or fragment)”, the stoichiometry N in data set [2] came out at 3.

B1: Atlas GC ectodomain (soluble ectodomain fragment of the phlebovirus GC-like Env of Ancylostoma ceylanicum Atlas virus, polyprotein residues 2330 to 2772) (domain or fragment, UniProt A0A016UZK2 2330-2772, looked up)
chain: CSEVISVTSTEEVCTIQENKETCTFNHATTITLQPLQQQTCLTLNDPEKRPMGMLTVKPDGIKFRCNKKIEFFTRDHQIVSESVHRCHRAGSCHSDECHHVKDTDALPEFSSEANSRPGYTSCSSSCGCITCDGCFFCEPSCLFHRLYAIPTTPTIYSIFYCPSWELEVDAEISLQREDETTTSTIRLLPGRTSTWNNIRFSLIGTIVPQLPILSSAFVTNGRQTSIVKPAYAGQLQSNSVGQLQCPNLEAAKQFECHFSRNLCTCTNALHKVSCTCYDGSVEDHMEALPLPQTSKNFLVFEKDRNIYAKTHVGSALQLHIVAQDLKITTVKHTSHCQVEASDLSGCYSCTSGASLTLSCKSDNGEVLANMKCNEQTHVIRCTESGFINNILLMFDTSEVAADCTAACPGGIVNFTIKGLLAFVNERIISQSYSATDVERNIK
notes: The C-terminal V5 and histidine tags were optionally cleaved with carboxypeptidase A; The atomic model covers residues 2330 to 2769; also called GC trimer; WT
As to B1, the “stoichiometry N” value in data set [3] was found to be 3.
